We go through five molecules from patent US20020197702A1 (IDUN PHARMACEUTICALS, published 2002).

Test in all cases: cell-based or functional assay
The target in assay [1] is T1, r-caspase-3 (His)6 (human, UniProt P42574 29-175; P42574 176-277).
T1 sequence 1: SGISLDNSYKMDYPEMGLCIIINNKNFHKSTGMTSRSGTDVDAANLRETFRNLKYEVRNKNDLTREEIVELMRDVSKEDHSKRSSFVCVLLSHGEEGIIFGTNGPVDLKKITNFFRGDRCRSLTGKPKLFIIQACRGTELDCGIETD
T1 sequence 2: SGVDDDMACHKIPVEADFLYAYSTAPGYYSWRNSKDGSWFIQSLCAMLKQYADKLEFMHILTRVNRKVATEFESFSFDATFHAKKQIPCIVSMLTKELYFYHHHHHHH

Assay [2] has as its target T2, affinity purified membrane derived caspase-3 from 697 cell heavy membranes (human, UniProt P42574 14-175; P42574 176-277, limits assumed).
T2 chain 1: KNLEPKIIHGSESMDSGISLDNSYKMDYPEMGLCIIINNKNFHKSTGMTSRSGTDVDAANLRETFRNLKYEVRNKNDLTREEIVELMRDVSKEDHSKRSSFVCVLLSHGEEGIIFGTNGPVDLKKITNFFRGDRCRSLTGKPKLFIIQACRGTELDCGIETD
T2 chain 2: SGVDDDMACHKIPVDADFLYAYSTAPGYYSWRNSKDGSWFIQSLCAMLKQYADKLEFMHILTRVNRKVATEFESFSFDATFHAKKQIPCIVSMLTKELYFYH

For assay [3], the target named is T3, 697 Bcl-2 HM (caspase-1 treated) caspase (human, UniProt P42574 14-175; P42574 176-277, limits assumed).
T3 chain 1: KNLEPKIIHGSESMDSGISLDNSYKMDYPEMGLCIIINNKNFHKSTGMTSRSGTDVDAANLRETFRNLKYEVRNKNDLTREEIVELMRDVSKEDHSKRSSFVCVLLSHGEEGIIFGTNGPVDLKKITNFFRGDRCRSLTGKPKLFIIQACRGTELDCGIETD
T3 chain 2: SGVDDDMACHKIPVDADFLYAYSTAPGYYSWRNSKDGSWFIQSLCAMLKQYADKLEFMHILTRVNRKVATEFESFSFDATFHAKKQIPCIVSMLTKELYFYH

Assay [4] deals with MN9D HM (caspase-1 treated) caspase (mouse).
Assay [5] concerns the target T1, r-caspase-3 (His)6. The source holds these as a separate data set.
The target in assay [6] is cortical cell HM (caspase-1 treated) caspase (mouse).
The target of assay [7] is T4, 697-neo HM (spontaneous activity) caspase (human, UniProt P42574 14-175, limits assumed).
T4 sequence 1: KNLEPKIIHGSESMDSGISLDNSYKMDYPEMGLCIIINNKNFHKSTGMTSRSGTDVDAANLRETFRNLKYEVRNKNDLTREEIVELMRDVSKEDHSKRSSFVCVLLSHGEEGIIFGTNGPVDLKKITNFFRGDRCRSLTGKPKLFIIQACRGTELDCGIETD
T4 sequence 2: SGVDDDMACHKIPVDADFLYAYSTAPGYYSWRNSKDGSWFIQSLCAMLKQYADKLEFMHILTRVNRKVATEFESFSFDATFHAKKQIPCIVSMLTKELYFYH

Assay [8] has as its target T5, 697-neo HM (caspase-1 treated) caspase (human, UniProt P42574 14-175; P42574 176-277, limits assumed).
T5 chain 1: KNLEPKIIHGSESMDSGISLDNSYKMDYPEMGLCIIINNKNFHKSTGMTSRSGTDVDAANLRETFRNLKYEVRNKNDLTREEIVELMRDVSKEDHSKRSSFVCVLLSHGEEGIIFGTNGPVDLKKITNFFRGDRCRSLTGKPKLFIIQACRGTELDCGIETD
T5 chain 2: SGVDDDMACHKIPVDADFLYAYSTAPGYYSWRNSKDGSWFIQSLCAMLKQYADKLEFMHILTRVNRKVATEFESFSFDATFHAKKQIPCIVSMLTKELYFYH

Ends that are not written are not given here. * marks the point of attachment. Cbz = O=C(OCc1ccccc1)*

In the case of VEID-aldehyde [VEIDald], the “IC50, inhibition of DEVD-AMC cleavage activity” value was determined as 32 nM with r-caspase-3 (His)6 [1] and 34 nM in assay [2].

Take DFLD-aldehyde [DFLD-ald]: the “IC50, inhibition of DEVD-AMC cleavage activity” value is 1.1 nM with r-caspase-3 (His)6 [1] and 4.7 nM in assay [2]. Further, the “IC50, inhibition of DEVD-amc cleavage” value in assay [3] stood at 3.6 nM; in assay [4] it was 2.5 nM; with r-caspase-3 (His)6 [5], 1.5 nM; in assay [6], 2.3 nM; in assay [7], 3.4 nM; in assay [8], 4.5 nM.

With DEVD-aldehyde [DEVD-ald], the “IC50, inhibition of DEVD-AMC cleavage activity” value (in the assay with r-caspase-3 (His)6 [1]; in assay [2]) was 1 nM each time. For the same molecule, the results for the “IC50, inhibition of DEVD-amc cleavage” value (in assay [4]; with r-caspase-3 (His)6 [5]; in assay [6]) were 0.72 nM, 1 nM and 1 nM, respectively.

For the molecule Ac-YVAD-aldehyde [YVAD-ald], the “IC50, inhibition of DEVD-amc cleavage” value (in assay [4]; with r-caspase-3 (His)6 [5]; in assay [6]) was greater than 10000 nM each time.

As for Cbz-Glu-Val-Asp-aldehyde (SMILES CC(C)[C@H](NC(=O)[C@H](CCC(=O)O)NC(=O)OCc1ccccc1)C(=O)N[C@H](C=O)CC(=O)O) [ZEVDald], the figures for the “IC50, inhibition of DEVD-AMC cleavage activity” value (with r-caspase-3 (His)6 [1]; in assay [2]) were 24 nM and 32 nM, respectively.
